± gives the standard deviation of the averaged measurements.
Assay: total protein half-life in vivo (active degradation + dilution); higher = more stable protein
[1] = E. coli NCM3722 delta-clpP delta-lon delta-hslV, growth: N-lim chemostat, doubling time 6 h
[2] = E. coli NCM3722 delta-clpP, growth: N-lim chemostat, doubling time 6 h
[3] = E. coli NCM3722 delta-hslV, growth: N-lim chemostat, doubling time 6 h
[4] = E. coli NCM3722 delta-lon, growth: N-lim chemostat, doubling time 6 h
[5] = E. coli NCM3722 delta-smpB, growth: N-lim chemostat, doubling time 6 h
[6] = wild type E. coli NCM3722, growth: C-lim chemostat, doubling time 3 h
[7] = wild type E. coli NCM3722, growth: C-lim chemostat, doubling time 6 h
[8] = wild type E. coli NCM3722, growth: N-lim chemostat, doubling time 6 h
[9] = wild type E. coli NCM3722, growth: N-lim chemostat, doubling time 12 h
[10] = wild type E. coli NCM3722, growth: P-lim chemostat, doubling time 6 h
[11] = wild type E. coli NCM3722, growth: P-lim chemostat, doubling time 12 h
[12] = wild type E. coli NCM3722, growth: C-lim chemostat, doubling time 12 h

Sequence | total protein half-life in vivo [1] [h] | total protein half-life in vivo [2] [h] | total protein half-life in vivo [3] [h] | total protein half-life in vivo [4] [h] | total protein half-life in vivo [5] [h] | total protein half-life in vivo [6] [h] | total protein half-life in vivo [7] [h] | total protein half-life in vivo [8] [h] | total protein half-life in vivo [9] [h] | total protein half-life in vivo [10] [h] | total protein half-life in vivo [11] [h] | total protein half-life in vivo [12] [h]
MLQNPIHLRLERLESWQHVTFMACLCERMYPNYAMFCQQTGFGDGQIYRRILDLIWETLTVKDAKVNFDSQLEKFEEAIPSADDFDLYGVYPAIDACVALSELVHSRLSGETLEHAVEVSKTSITTVAMLEMTQAGREMSDEELKENPAVEQEWDIQWEIFRLLAECEERDIELIKGLRADLREAGESNIGIIFQQ | 5.09 ± 0.47 | 5.16 ± 0.66 | 4.79 ± 0.12 | 5.23 ± 0.55 | 4.12 ± 1.1 | 3.1 ± 0.088 | 5.93 ± 0.21 | 4.84 ± 0.12 | 8.11 ± 0.86 | 6.28 ± 0.52 | 13.7 ± 1.8 | –
MLRIIDTETCGLQGGIVEIASVDVIDGKIVNPMSHLVRPDRPISPQAMAIHRITEAMVADKPWIEDVIPHYYGSEWYVAHNASFDRRVLPEMPGEWICTMKLARRLWPGIKYSNMALYKTRKLNVQTPPGLHHHRALYDCYITAALLIDIMNTSGWTAEQMADITGRPSLMTTFTFGKYRGKAVSDVAERDPGYLRWLFNNLDSMSPELRLTLKHYLENT [P0AEK0] | 5.44 ± 2 | 1.56 ± 0.12 | 1.2033 ± 0.0011 | 2.29 ± 0.6 | 0.987 ± 0.0014 | 1.24 ± 0.16 | 2 ± 0.16 | 1.37 ± 0.12 | 2.04 ± 0.23 | 1.52 ± 0.42 | 3.43 | 2.32
MLSIKDLHVSVEDKAILRGLSLDVHPGEVHAIMGPNGSGKSTLSATLAGREDYEVTGGTVEFKGKDLLALSPEDRAGEGIFMAFQYPVEIPGVSNQFFLQTALNAVRSYRGQETLDRFDFQDLMEEKIALLKMPEDLLTRSVNVGFSGGEKKRNDILQMAVLEPELCILDESDSGLDIDALKVVADGVNSLRDGKRSFIIVTHYQRILDYIKPDYVHVLYQGRIVKSGDFTLVKQLEEQGYGWLTEQQ | 4.81 ± 0.069 | 5.52 ± 1.8 | 4.19 ± 0.79 | 4.25 ± 0.1 | 3.63 ± 0.052 | 2.88 ± 0.13 | 5.37 ± 0.23 | 3.75 ± 0.3 | 5.68 ± 0.23 | 5.47 ± 0.51 | 9.75 ± 0.2 | 10.1 ± 0.62
MLSKFKRNKHQQHLAQLPKISQSVDDVDFFYAPADFRETLLEKIASAKQRICIVALYLEQDDGGKGILNALYEAKRQRPELDVRVLVDWHRAQRGRIGAAASNTNADWYCRMAQENPGVDVPVYGVPINTREALGVLHFKGFIIDDSVLYSGASLNDVYLHQHDKYRYDRYHLIRNRKMSDIMFEWVTQNIMNGRGVNRLDDVNRPKSPEIKNDIRLFRQELRDAAYHFQGDADNDQLSVTPLVGLGKSSLLNKTIFHLMPCAEQKLTICTPYFNLPAILVRNIIQLLREGKKVEIIVGDKTANDFYIPEDEPFKIIGALPYLYEINLRRFLSRLQYYVNTDQLVVRLWKDDDNTYHLKGMWVDDKWMLITGNNLNPRAWRLDLENAILIHDPQLELAPQREKELELIREHTTIVKHYRDLQSIADYPVKVRKLIRRLRRIRIDRLISRIL | 5.434 ± 0.046 | 5.74 ± 0.068 | 5.18 ± 0.38 | 5.91 ± 0.5 | 4.896 ± 0.011 | 2.97 ± 0.26 | 5.64 ± 0.11 | 5.01 ± 0.21 | 8.57 ± 0.86 | 6.41 ± 0.85 | 12 ± 1.5 | 9.36 ± 0.81
MLSRRGHRLSRFRKNKRRLRERLRQRIFFRDKVVPEAMEKPRVLVLTGAGISAESGIRTFRAADGLWEEHRVEDVATPEGFDRDPELVQAFYNARRRQLQQPEIQPNAAHLALAKLQDALGDRFLLVTQNIDNLHERAGNTNVIHMHGELLKVRCSQSGQVLDWTGDVTPEDKCHCCQFPAPLRPHVVWFGEMPLGMDEIYMALSMADIFIAIGTSGHVYPAAGFVHEAKLHGAHTVELNLEPSQVGNEFAEKYYGPASQVVPEFVEKLLKGLKAGSIA | 5.1 ± 0.51 | 4.14 ± 0.054 | 4.03 ± 0.65 | 5.77 ± 0.77 | 4.15 ± 0.36 | 2.64 ± 0.21 | 4.79 ± 0.29 | 4.37 ± 0.24 | 7.71 ± 0.99 | 5.56 ± 0.39 | 10.5 ± 1.2 | 10.2 ± 0.35

Source: the supplement of paper PMC11246515
